This note sets out measurements from patent publication US20240317884A1, “METHOD FOR ALLOWING IMMUNE CELLS INFILTRATION IN TUMORS” (Alethia Biotherapeutics Inc., priority 2021, published 2024).

“And” between values parts separate entries of the source, which are not always exact repeats. Equal entries are not always repeated. “Also recorded” adds a separate entry of the source.

One experiment relates to 4T1 primary tumors. As to the kind of experiment: 4T1 model: CD45+ immune cells in primary tumors. The class given is in vivo, Balb/c mice. The following applies: Balb/c, 5-week regimens (Groups 2, 4, 5), primary tumors excised at Day 16. The procedure: (§1) Five groups, each consisting of 10 female Balb/c mice were assigned to this study (see Table 5 below). All animals received subcutaneous implantation of 4T1 mouse mammary carcinoma cells in the 4th inguinal mammary gland. Treatment was initiated on the day of implantation (defined as Day 1). Animals from Group 1 (Gr. 1) received IP treatment of saline vehicle control twice a week for the duration of the study. Animals from Group 2 (Gr. 2) received 10 mg/kg of docetaxel weekly for five weeks by IP administration. Animals from Group 3 (Gr. 3) received 10 mg/kg of docetaxel weekly for two weeks and 10 mg/kg of AB-16B5, twice weekly for five weeks. Animals from Group 4 (Gr. 4) received 10 mg/kg of docetaxel weekly and 5 mg/kg of 16B5 twice weekly each over the course of a five weeks treatment. Animals from Group 5 (Gr. 5) received AB-16B5 twice weekly for five weeks. On Day 36, the primary tumors were excised and on Day 37, the animals were sacrificed and the number of grossly visible metastatic nodules on the surface of the lungs was counted.
The primary tumors excised at Day 16 post implantation, were processed with collagenase and hyaluronidase and immune cells were purified by positive selection using magnetic latex beads coated with an anti-CD45 antibody. […]

For experiment [1], the system named is 4T1 mouse mammary carcinoma cells. As to the kind of experiment: 4T1 model: count of metastatic lung nodules. It counts as in vivo, Balb/c mice. The following applies: Balb/c, treatment for 5 weeks (docetaxel 10 mg/kg IP 1X/week; AB-16B5 10 mg/kg IP 2X/week), vs saline control. The procedure: as §1
A further experiment deals with 4T1 tumor cells. As to the kind of experiment: INFγ secretion of tumor infiltrating lymphocyte cultures co-cultured with 4T1 cells (ELISA). It counts as cell-based, Balb/c mice. The following applies: 100,000 lymphocytes from lung metastatic nodules with 100,000 4T1 cells overnight, individual animals, AB-16B5 10 mg/kg IP twice weekly ± docetaxel 10 mg/kg IP weekly. As to the method:
Balb/c mice were orthotopically implanted with 5×10^5 4T1 cells in the 4th mammary fat pad. Animals received intraperitoneal (IP) AB-16B5 (murine 16B5) 10 mg/kg twice weekly in combination with IP docetaxel 10 mg/kg weekly (Group 15: animals 1501, 1502 and 1503) or IP AB-16B5 10 mg/kg twice weekly (Group 25: […]). The primary tumor was surgically removed at Day 16 post-implantation. The animals were sacrificed at Day 36 and the lungs were excised and each visible lung metastasis was carefully dissected. Each visible metastatic nodule, if any, was excised and processed for a rapid expansion of tumor infiltrating lymphocyte protocol. The metastatic nodules were sectioned into small pieces of 2-3 mm edge that were individually grown in 24 well plates containing culture medium supplemented with FBS, IL2, IL7, ITS (1,000 U/mL IL2, 2.0 ng/mL IL7 and 1× insulin-transferrin-selenium cocktail (Gibco 41400-045)).
After three weeks in culture, 100,000 cells were taken from each of the lymphocyte cultures (six cultures corresponding to three animals from Group 15 and three animals from Group 25) and placed in culture with 100,000 4T1 tumor cells. After overnight co-culture, the supernatant was recovered for INFγ quantification by ELISA.

The test system of another experiment is 4T1 lung metastases. As to the kind of experiment: 4T1 model: immunohistochemistry of lung metastases. It counts as in vivo. The following applies: Balb/c mice, orthotopic 4T1; 10 mg/kg IP thrice a week; Day 36. From the text: Balb/c mice were orthotopically implanted with 5×10^5 4T1 cells in the 4th mammary fat pad. Animals received IP saline treatment thrice weekly. The primary tumor was surgically removed at Day 16 post-implantation. The animals were sacrificed at Day 36 and the lungs were excised. Tissues were fixed in paraformaldehyde and processed for paraffin embedding. Tissue sections were probed with anti-mouse CD3, anti-mouse CD8 and anti-mouse B220 antibodies. […] Results presented in FIG. 1 indicate that the 4T1 lung metastases create an immune cold microenvironment which prevents the infiltration of B and T lymphocytes in tumors. Delineated regions indicate that CD3 and CD8 T lymphocytes are restricted in the tumor margin as a consequence of EMT.
Animals bearing 4T1 tumors were treated with the AB-16B5 antibody (murine 16B5) thrice a week IP at 10 mg/kg. The primary tumor was surgically removed at Day 16 post-implantation. The animals were sacrificed at Day 36 and the lungs were excised. Tissues were fixed in paraformaldehyde and processed for paraffin embedding. Tissue sections were probed with anti-mouse CD3, anti-mouse CD8 and anti-mouse B220 antibodies.

As to `CC(=O)O[C@@]12CO[C@@H]1C[C@H](O)[C@@]1(C)C(=O)[C@H](O)C3=C(C)[C@@H](OC(=O)[C@H](O)[C@@H](NC(=O)OC(C)(C)C)c4ccccc4)C[C@@](O)([C@@H](OC(=O)c4ccccc4)[C@H]21)C3(C)C` [docetaxel], the “CD45+ immune cells in primary tumors” value with 4T1 primary tumors was “very few CD45+”. Moreover, in experiment [1], the “metastatic lung nodules / therapeutic effect on lung metastases” value is on record as “as many metastatic lung nodules as the saline control group; also recorded: relatively ineffective”.

B1: murine 16B5: murine anti-clusterin 16B5 antibody used in mouse studies; VL SEQ ID NO:7, VH SEQ ID NO:8 (antibody, V domains shown)
VH: EVQLQQSGAELVKPGASVRLSCTTSGFNIKDIYMHWVKQRPEQGLEWIGRIDPAYGNTKYDPKFQGKATITADTSSNTAYLQLSSLTSEDTAVYYCARRYDTAMDYWGQGTSVTVSS
VL: DIVMSQSPSSLAVSAGEKVTMSCKSSQSLLNSRTRKNYLAWYQQKPGQSPKLLIYWASTRESGVPDRFTGSGSGTDFTLTISSVQAEDLAVYYCKQSYNLWTFGGGTKLEFK
modifications: Murine 16B5 VH; Murine 16B5 VL
For the molecule B1, the INFγ in the experiment on 4T1 tumor cells was 8538.8 pg/mL and 3770.0 pg/mL and 4538.8 pg/mL. The “CD45+ immune cells in primary tumors” value in the experiment on 4T1 primary tumors is “more immune cells”. Also, in the experiment on 4T1 lung metastases, the “infiltration of lung metastases with T cells” value is “densely infiltrated with CD3 and CD8 T cells”; the “lung metastases (number and size)” value was “fewer and much smaller lung metastases”; the “plasmocytes penetration in tumors” value is recorded as “evidence of plasmocytes penetration”. For the same molecule, the “metastatic lung nodules / therapeutic effect on lung metastases” value in experiment [1] is “less metastatic lung nodules”.
